Results on one sequence are retold here after article PMC7617061.

The data set addresses U1-C zinc finger (UniProt P09234). The experiment in a line: NMR titration. The note with it: pseudouridine at U1 strand positions 5 and 6.
UniProt P09234, sequence (P09234 1-61): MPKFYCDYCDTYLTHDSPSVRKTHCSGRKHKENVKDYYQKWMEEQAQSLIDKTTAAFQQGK

In the case of “AUACUUACCUG / GGAGUAAGUCU [U1 snRNA 5'-end / SMN2 E7 5'-SS RNA duplex]”, the binding signal (fold affinity increase vs no SMN-C5) worked out at 3.
